From paper PMC1084328 (Nucleic Acids Research, 2005) come the findings set out here.

The target in series [1] is T1, RecN (Bacillus subtilis, UniProt P17894).
T1 sequence (P17894 1-576): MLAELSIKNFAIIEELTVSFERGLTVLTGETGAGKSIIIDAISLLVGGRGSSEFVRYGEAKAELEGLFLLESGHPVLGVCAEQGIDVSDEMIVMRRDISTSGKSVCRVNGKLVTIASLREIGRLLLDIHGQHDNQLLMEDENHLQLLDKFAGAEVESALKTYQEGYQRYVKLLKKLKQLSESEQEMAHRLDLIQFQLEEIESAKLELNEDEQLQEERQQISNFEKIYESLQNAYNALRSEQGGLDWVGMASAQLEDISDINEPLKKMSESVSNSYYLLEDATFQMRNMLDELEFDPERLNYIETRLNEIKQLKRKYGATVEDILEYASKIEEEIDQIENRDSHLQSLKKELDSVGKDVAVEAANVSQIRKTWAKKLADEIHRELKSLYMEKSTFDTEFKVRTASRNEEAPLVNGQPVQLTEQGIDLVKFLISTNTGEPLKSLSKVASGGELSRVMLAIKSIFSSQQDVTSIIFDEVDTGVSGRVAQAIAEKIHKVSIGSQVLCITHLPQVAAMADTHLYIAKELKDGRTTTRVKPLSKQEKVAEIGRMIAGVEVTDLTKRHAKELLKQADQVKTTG
Put plainly: EMSA, nucleotide-dependent RecN-ssDNA complex. The class given is binding.

The target in series [2] is T2, RecN (Bacillus subtilis, UniProt P17894 1-576).
T2 sequence: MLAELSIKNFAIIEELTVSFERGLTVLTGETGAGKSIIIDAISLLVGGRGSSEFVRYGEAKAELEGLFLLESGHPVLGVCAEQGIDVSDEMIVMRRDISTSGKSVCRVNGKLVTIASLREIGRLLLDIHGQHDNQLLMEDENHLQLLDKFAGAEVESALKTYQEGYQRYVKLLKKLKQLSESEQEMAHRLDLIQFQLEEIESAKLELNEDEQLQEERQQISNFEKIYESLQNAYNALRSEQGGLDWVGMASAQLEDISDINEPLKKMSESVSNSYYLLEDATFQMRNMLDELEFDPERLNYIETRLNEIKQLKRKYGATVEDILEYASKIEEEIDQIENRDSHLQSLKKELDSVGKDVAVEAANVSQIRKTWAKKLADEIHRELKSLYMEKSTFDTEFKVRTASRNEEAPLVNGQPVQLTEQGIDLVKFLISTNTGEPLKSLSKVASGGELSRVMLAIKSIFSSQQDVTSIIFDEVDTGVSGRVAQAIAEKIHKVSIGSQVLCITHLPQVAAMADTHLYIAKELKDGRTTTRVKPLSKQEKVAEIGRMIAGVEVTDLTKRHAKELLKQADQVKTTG
Description: EMSA.

Series [3] addresses T2, RecN. Put plainly: EMSA. The source holds these as a separate data set. A general note: Mobility shift assays separate free from complexed probe on a gel.
Series [4] has as its target T3, RecN, high-S gradient fraction 1 (presumed octamer) (Bacillus subtilis, UniProt P17894 1-576).
T3 sequence: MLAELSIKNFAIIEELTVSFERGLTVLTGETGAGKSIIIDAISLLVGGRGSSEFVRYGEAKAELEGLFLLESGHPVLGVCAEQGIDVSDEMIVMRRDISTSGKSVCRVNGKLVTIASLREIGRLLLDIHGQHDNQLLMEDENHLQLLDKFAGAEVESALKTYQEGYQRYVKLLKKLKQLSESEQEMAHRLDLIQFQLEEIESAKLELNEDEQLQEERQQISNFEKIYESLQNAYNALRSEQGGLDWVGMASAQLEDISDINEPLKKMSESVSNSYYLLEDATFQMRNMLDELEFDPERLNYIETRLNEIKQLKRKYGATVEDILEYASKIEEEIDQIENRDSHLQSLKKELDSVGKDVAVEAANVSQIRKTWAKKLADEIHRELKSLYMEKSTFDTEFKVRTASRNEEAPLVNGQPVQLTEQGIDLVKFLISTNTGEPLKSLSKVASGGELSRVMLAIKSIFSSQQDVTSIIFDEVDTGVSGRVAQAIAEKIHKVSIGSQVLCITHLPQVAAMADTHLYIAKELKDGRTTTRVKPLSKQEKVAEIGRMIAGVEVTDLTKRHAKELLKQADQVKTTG
Description: EMSA.

Series [5] has as its target T2, RecN. Description: EMSA. The source holds these as a separate data set.

Where two headings read alike, the source gives them in different places.

As to `Nc1ncnc2c1ncn2[C@@H]1O[C@H](COP(=O)(O)OP(=O)(O)OP(O)(O)=S)[C@@H](O)[C@H]1O` [ATPγS], the “EMSA, nucleotide-dependent RecN-ssDNA complex (CII/CIII) assembly” value in series [1] (weakly hydrolysable analogue, ssDNA60, 2 mM MgCl2, pH 7.5, 37 °C) is “weakly hydrolysable analogue (ATPγS) present, CII and CIII formation was observed”. Take `Nc1ncnc2c1ncn2[C@H]1C[C@H](O)[C@@H](COP(=O)(O)OP(=O)(O)OP(=O)(O)O)O1` [dATP]: in series [1] (labelled ssDNA60 1 nM, RecN 10 nM, 2 mM MgCl2, pH 7.5, 2% PEG-6000, 37 °C, dATP 1 mM), the “EMSA, nucleotide-dependent RecN-ssDNA complex (CII/CIII) assembly” value was “also when ADP or dATP was present CIII and CII were formed”. With CTCCTATTATGCTCA (ssDNA) [ssDNA15], the binding result in series [2] is recorded as “no binding”.

B1: ssDNA60 (ssDNA)
DNA: CTCCTATTATGCTCAACTTAAATGACCTACTCTATAAAGCTATAGTACTGCTATCTAATC
On to B1, for which the binding result in series [3] and in series [4] was “binds” throughout.

B2: dsDNA60 (dsDNA)
DNA 1: CTCCTATTATGCTCAACTTAAATGACCTACTCTATAAAGCTATAGTACTGCTATCTAATC
DNA 2: GATTAGATAGCAGTACTATAGCTTTATAGAGTAGGTCATTTAAGTTGAGCATAATAGGAG
On to B2, for which, in series [5], the binding result is reported as “no binding”.
